Laboratory results: the supplement of paper PMC9170038

Columns and labels:
[1] = test system: MS2 coat protein; assay: apparent KD of MS2 coat protein, switch OFF state (with FMN for OFF switches, without FMN for ON switches); designed switch direction (-1 OFF switch, 1 ON switch): 1; higher = weaker reporter binding; settings: FMN input: 0 or 200 uM; Eterna round: R93 (includes R88 designs)
Method in brief: (§1)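 SNAP-549-labelled MS2 coat protein was titrated onto designed RNA switches that had been transcribed on-chip from Illumina sequencing clusters. Amounts doubled from 0.7 or 1.5 nM to 3 µM in 100 mM Tris-HCl pH 7.5, 80 mM KCl, 4 mM MgCl2, with constant ligand or without. Apparent KD is the median per design of normalised cluster binding-curve fits.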

[2] = test system: MS2 coat protein; assay: apparent KD of MS2 coat protein, switch ON state; designed switch direction (-1 OFF switch, 1 ON switch): 1; higher = weaker reporter binding; settings: FMN input: 0 or 200 uM; Eterna round: R93 (includes R88 designs)
Method in brief: as §1

## AAUAUACAUGAGGAUCACCCAUGUUAGGUGGGACUAGGAUAUCAAAAUAAAUAAAGAACAUGAGAAGGAGUAUAAA [JR_SS001_Sub017]
[1]
  apparent KD of MS2 coat protein: 178 nM
[2]
  apparent KD of MS2 coat protein: 75.3 nM

## AAUAUAUUAAGUGAGGAUAUCGAGGAAAAAACAUGAGGAUCACCCAUGUGGGAAACAUGGUCGGGUGAGAAGGCACUUAAUAUAU [Samwise Clockwise 25 - Jieux - Same State 2]
[1]
  apparent KD of MS2 coat protein: 326 nM
[2]
  apparent KD of MS2 coat protein: 125 nM

## AAUCCAAAUAGUCAGGAUAUCAAAAAUAAGACAUGAGGAUCACCCAUGUAAUAAGUAAAAGUAAAUGAGAAGGGACAGGGUGAAA [JR_SS002_Sub401]
[1]
  apparent KD of MS2 coat protein: 92.8 nM
[2]
  apparent KD of MS2 coat protein: 398 nM

## ACAAACAAAAAAGAGGAUAUCCUAAACAAAACAUGAGGAUCACCCAUGUAAAAAAAAAUAAAAUGGGAGAAGGCUUACAACAAAC [SS2 M 23]
[1]
  apparent KD of MS2 coat protein: 51.7 nM
[2]
  apparent KD of MS2 coat protein: 68 nM

## ACUAGGAAGAGAGAGGAUAUCCAAAGGAAAACAUGAGGAUCACCCAUGUAAAAGGUAGGAAAUUGGGAGAAGGCUCAAGAGAGAG [salish99-ss2-085]
[1]
  apparent KD of MS2 coat protein: 24.4 nM
[2]
  apparent KD of MS2 coat protein: 22.9 nM

## ACUAUACAUGAGGAUCACCCAUGUUAGGUGGGACUAGGAUAUCAAAAGCCAGAGUAAGAAUGAGAAGGAGUAGAAA [JR_SS001_Sub301]
[1]
  apparent KD of MS2 coat protein: 34.8 nM
[2]
  apparent KD of MS2 coat protein: 32.8 nM

## AGAAAACAUGAGGAUCACCCAUGUAGAAACAUGGGAGGAUAUACAAAGACGAAAGUCAAAGUAGAAGGCCUAAAAA [Mat - Same State 1 - Mod - D163]
[1]
  apparent KD of MS2 coat protein: 140 nM
[2]
  apparent KD of MS2 coat protein: 75.7 nM

## AGAAAACAUGAGGAUCACCCAUGUAGAAAUAUGGGAGGAUAUACAAAGACGAAAGUCAAAGUAGAAGGCCUAAAAG [Mat - Same State 1 - Eli mod - 35]
[1]
  apparent KD of MS2 coat protein: 78.3 nM
[2]
  apparent KD of MS2 coat protein: 23.2 nM

## AGAAAACAUGAGGAUCACCCAUGUAGAAAUAUGGGAGGAUAUACGAAGACGAAAGUCAAAGUAGAAGGCCUAAGAA [Mat - Same State 1 - Eli mod - D108]
[1]
  apparent KD of MS2 coat protein: 51.7 nM
[2]
  apparent KD of MS2 coat protein: 18.8 nM

## AGAAAACAUGAGGAUCACCCAUGUGACAAUAUGGGAGGAUAUACCAAGACGAAAGUCGAAGUAGAAGGCCUAAAGA [Garnet 51]
[1]
  apparent KD of MS2 coat protein: 69.8 nM
[2]
  apparent KD of MS2 coat protein: 22.9 nM

## AGAAAUAAAACGAAGGAUAUCCAAAAUAAAACAUGAGGAUCACCCAUGUAAAAGAAAAUAAAGUGGGAGAAGGUCGAAAAUAAGA [Designing denovo 15]
[1]
  apparent KD of MS2 coat protein: 54.4 nM
[2]
  apparent KD of MS2 coat protein: 12 nM

## AGAAAUAAAAGACAGGAUAUCCAAAACUCAACAUGAGGAUCACCCAUGUAAAAGAAAAUAAAAUGGGAGAAGGGUCAAAAUAAGA [Jieux modified + C segment V2]
[1]
  apparent KD of MS2 coat protein: 33.8 nM
[2]
  apparent KD of MS2 coat protein: 15.3 nM

## AGAAAUAAAAGACAGGAUAUCCACUCAAAAACAUGAGGAUCACCCAUGUAAAAGAAAAUAAAAUGGGAGAAGGGUCAAAAUAAGA [Jieux modified + C segment V7]
[1]
  apparent KD of MS2 coat protein: 48.6 nM
[2]
  apparent KD of MS2 coat protein: 15.5 nM

## AGAAAUAAAAGAGAGGAUAUCCAAAAAGGGACAUGAGGAUCACCCAUGUAAAAGAAAAUAAAAUGGGAGAAGGCUCAAAAUAAAG [80%, More Helter Skelter 2]
[1]
  apparent KD of MS2 coat protein: 120 nM
[2]
  apparent KD of MS2 coat protein: 97.3 nM

## AGAAAUAAAAGAGAGGAUAUCCAAAAGAAAACAUGAGGAUCACCCAUGUAAAACAAAACAAAAUGGGAGAAGGCUCAAAAUAAGA [Topaz 15]
[1]
  apparent KD of MS2 coat protein: 31.4 nM
[2]
  apparent KD of MS2 coat protein: 19.8 nM

## AGAAAUAAAGCUGAGGAUAUGGGUAAAUACACAUGAGGAUCACCCAUGUAAAAGAAAAUAAAAAACCAGAAGGCAGCAAAUAAGA [Designing denovo 4]
[1]
  apparent KD of MS2 coat protein: 30.8 nM
[2]
  apparent KD of MS2 coat protein: 23.4 nM

## AGAAAUAAAGGAGAGGAUAUCCAAAAGAAAACAUGAGGAUCACCCAUGUAAAAGAAAAUAAAGUGGGAGAAGGCUUCAAAUAAGA [Starry modified V5]
[1]
  apparent KD of MS2 coat protein: 45.2 nM
[2]
  apparent KD of MS2 coat protein: 18.7 nM

## AGAAAUAAAGGAGAGGAUAUUCAAAAAGGGACAUGAGGAUCACCCAUGUAAAAGAAAAUAAAAUGGGAGAAGGCUCUAAAUAAAG [80%, More Helter Skelter 2]
[1]
  apparent KD of MS2 coat protein: 47.2 nM
[2]
  apparent KD of MS2 coat protein: 49.6 nM

## AGAAGACAUGAGGAUCACCCAUGUGCACGUGGAGGAGGAUAUGCUAGUAGAAGAUAGAAUGCAGAAGGCCUAAGAA [Mat - Mod]
[1]
  apparent KD of MS2 coat protein: 38.5 nM
[2]
  apparent KD of MS2 coat protein: 51.9 nM

## AGAAGACAUGAGGAUCACCCAUGUGGGAUUAUGGGAGGAUAUACAAAGACGAGAGUCAGAGUAGAAGGCCUAGGAU [salish99-ss1-113(!)]
[1]
  apparent KD of MS2 coat protein: 70.8 nM
[2]
  apparent KD of MS2 coat protein: 24.7 nM

## AGAUCUAGAAGGUAGGAUAUGUGAAAAAAAACAUGAGGAUCACCCAUGUGAUGAAUAAAAAGAAAAUAGAAGGACCAUCUAGAUC [Cross swing 1]
[1]
  apparent KD of MS2 coat protein: 59 nM
[2]
  apparent KD of MS2 coat protein: 16 nM

## AGCGAACAUGAGGAUCACCCAUGUGAAAAACAUAGAGGAUAUGUCGCAUGCGUGUAAAAGACAGAAGGCUAUCGCG [Mat - Mod of Nando]
[1]
  apparent KD of MS2 coat protein: 52.1 nM
[2]
  apparent KD of MS2 coat protein: 24 nM

## AGGAAACAUGAGGAUCACCCAUGUAAAAAAUAUGGAGGAUAUGCUAGAAGAAACAAAAUAGCAGAAGGCCAAAAAA [75%, Ex sub1, 23]
[1]
  apparent KD of MS2 coat protein: 24.7 nM
[2]
  apparent KD of MS2 coat protein: 13.7 nM

## AGGAAACAUGAGGAUCACCCAUGUAAAAAUAACGCAGGAUAUGGAAACACGAAAGUGAAACCAGAAGGGUGAAAAG [77%, Mat - Mod of Eli, 14]
[1]
  apparent KD of MS2 coat protein: 29.8 nM
[2]
  apparent KD of MS2 coat protein: 18.9 nM

## AGGAGACAUGAGGAUCACCCAUGUAGAAGGAUGGGAGGAUAUACAAAGACGAGAGUCAGAGUAGAAGGCCUAGGAA [salish99-ss1-182(!)]
[1]
  apparent KD of MS2 coat protein: 55.4 nM
[2]
  apparent KD of MS2 coat protein: 19.7 nM

## AUAAAACAUGAGGAUCACCCAUGUAAAAAUAUGGAAGGAUAUACGUAGUAAAAUAAAUACGUAGAAGGUCCAAAAA [SS! MT 21]
[1]
  apparent KD of MS2 coat protein: 19.7 nM
[2]
  apparent KD of MS2 coat protein: 15 nM

## AUAAAACAUGAGGAUCACCCAUGUAGAAAUAAGGGAGGAUAUACAAAGACGAAAGUCAAAGUAGAAGGCUCAAAAG [76%, Meechl 5]
[1]
  apparent KD of MS2 coat protein: 24.3 nM
[2]
  apparent KD of MS2 coat protein: 16.8 nM

## AUAAAACAUGAGGAUCACCCAUGUAGACACAUGGGAGGAUAUACUAGAUCGAAAGAUCUAGUAGAAGGCCUUUGUA [Mat - Same State 1 - JL mod - D93]
[1]
  apparent KD of MS2 coat protein: 749 nM
[2]
  apparent KD of MS2 coat protein: 131 nM

## AUAAAAGAAGCGAAGGAUAUCCAAAACCUAACAUGAGGAUCACCCAUGUAAAGAAAGAAAAAAUGGGAGAAGGUCGCAAAGAAUA [73%, More Fisker Same State 2, D3, 9]
[1]
  apparent KD of MS2 coat protein: 22.7 nM
[2]
  apparent KD of MS2 coat protein: 11.9 nM

## AUAAAGAAAACACAGGAUAUCCAAAAGAAAACAUGAGGAUCACCCAUGUAAAGAAAAUAAAAAUGGGAGAAGGGUGAAAGAAAUA [Mat - Same State 2 - JL mod - D40]
[1]
  apparent KD of MS2 coat protein: 109 nM
[2]
  apparent KD of MS2 coat protein: 34.8 nM

## AUAAAUAAAAGCAAGGAUAUCCAAAAGAAAACAUGAGGAUCACCCAUGUAAAAGAAAAUAAAAUGGGAGAAGGUGCAAAAUAAAU [viburnum 8]
[1]
  apparent KD of MS2 coat protein: 27.5 nM
[2]
  apparent KD of MS2 coat protein: 14.8 nM

## AUACUGGAGGACAAGGAUAUGUGCUCCACGACAUGAGGAUCACCCAUGUGCGACGUGGUAGUGAAACAGAAGGUGUCCUAUUGUA [Edonisve]
[1]
  apparent KD of MS2 coat protein: 17.7 nM
[2]
  apparent KD of MS2 coat protein: 13.1 nM

## AUAUAUAAAAGGUAGGAUAUUCUAAAAUAAACAUGAGGAUCACCCAUGUAAAGAAAGAAACUCAUGGAGAAGGACCAUAUAUAUA [ss2 5th modifying Eli's mod of Tesla]
[1]
  apparent KD of MS2 coat protein: 156 nM
[2]
  apparent KD of MS2 coat protein: 45.6 nM

## AUAUAUAUAAGACAGGAUAUCCUAAAGUAAACAUGAGGAUCACCCAUGUAAAGAAAGAAACUCAUGGAGAAGGGUCAAUAUAUAU [Mat - Same State 2 - Tesla mod - D81]
[1]
  apparent KD of MS2 coat protein: 48.6 nM
[2]
  apparent KD of MS2 coat protein: 14.1 nM

## AUAUAUAUAAGGUAGGAUAUCCAAAAAUAAACAUGAGGAUCACCCAUGUCCAUAAAGAAUAAAUGGGAGAAGGACCAUAUAUAUA [viburnum 9]
[1]
  apparent KD of MS2 coat protein: 48.6 nM
[2]
  apparent KD of MS2 coat protein: 28.5 nM

## AUAUAUAUAAGGUAGGAUAUCCAAAAAUCCACAUGAGGAUCACCCAUGUAAAGAAAGAAAAAAUGGGAGAAGGACCAUAUAUAUA [77%, More Tesla, 6]
[1]
  apparent KD of MS2 coat protein: 31.9 nM
[2]
  apparent KD of MS2 coat protein: 16.9 nM

## AUAUAUAUAAGGUAGGAUAUCCAAUAAUCCACAUGAGGAUCACCCAUGUAAAGAAAGAAAAAGUGGGAGAAGGGCCAUAUAUAUA [viburnum 7]
[1]
  apparent KD of MS2 coat protein: 48.4 nM
[2]
  apparent KD of MS2 coat protein: 17.4 nM

## AUGAAUAGAAUCGAGGAUAUCCAGUCAUGAACAUGAGGAUCACCCAUGUAAGAGAGAGUAUAAUGGGAGAAGGCGAGUAAUAGAU [JR_SS002_Sub1702]
[1]
  apparent KD of MS2 coat protein: 84.5 nM
[2]
  apparent KD of MS2 coat protein: 27 nM
